Data: article PMC7343240

Tests used:
[1] = biological target: IGF-1Rzip (leucine-zipper-stabilized human IGF-1R ectodomain) (human | Saccharomyces cerevisiae); assay: cryo-EM structure; IGF-1Rzip mixed with IGF-II at a molar ratio of 1 to 1.5 (receptor homodimer to ligand) in TBSA (24.8 mM Tris-HCl pH 8.0, 137 mM NaCl, 2.7 mM KCl, 0.02% azide); single-particle reconstruction; open-leg and closed-leg 3D classes
[2] = biological target: IGF-1Rzip (leucine-zipper-stabilized human IGF-1R ectodomain) (human | Saccharomyces cerevisiae); assay: europium time-resolved fluorescence competition binding assay (immunocapture); IGF-1Rzip (0.5 μg per well) captured on a plate coated with 24-31 anti-human IGF-1R antibody; Eu-IGF-I or Eu-IGF-II (~100,000 counts) with increasing concentrations of unlabelled IGF-I or IGF-II; 16 h at 4°C; one-site fit
[3] = biological target: holoIGF-1R (IGF-1R holoreceptor solubilized from P6 cells) (human) (UniProt P08069); assay: europium time-resolved fluorescence competition binding assay (immunocapture); IGF-1R solubilized from P6 cells (100 μl lysate per well) captured on a plate coated with 24-31 anti-human IGF-1R antibody; Eu-IGF-I or Eu-IGF-II (~100,000 counts) with increasing concentrations of unlabelled IGF-I or IGF-II; 16 h at 4°C; one-site fit

stoichiometry N (IGF-II per receptor homodimer) [1] | IC50 [2] | IC50 [3] | Substance
1 |  |  | "Receptor grade" IGF-II (GroPep) (ligand)
 | 0.39 nM |  | human insulin-like growth factor I (IGF-I) (from UniProt P05019 49-118) (ligand)
 | 1.24 nM | 0.85 nM | human insulin-like growth factor II (IGF-II), of Francis et al., 1993 (ligand)
